Reference: patent US20180071366A1
Numbered stars: 1 amine (or outer) side, 2 acyl side, 3 side chain; on linkers, the order of the positions; unused ones are H or OH. Bridge positions count the residues as written; N and C are the ends. Square brackets hold non-standard residues; d marks the D form. * marks the point of attachment. C20 diacid = O=C(O)CCCCCCCCCCCCCCCCCCC(=O)*; γGlu = O=C(O)[C@H](CCC(=O)[*:2])N[*:1]; Hyp = O=C(O)[C@@H]1C[C@@H](O)CN1; NMeI = CC[C@H](C)[C@H](NC)C(=O)O; Aad = N[C@@H](CCCC(=O)O)C(=O)O; Orn = NCCC[C@H](N)C(=O)O; Dab = NCC[C@H](N)C(=O)O; Dap = NC[C@H](N)C(=O)O; Sar = CNCC(=O)O

How the values were obtained:
[1] = biological target: recombinant human amylin 3 receptor (hAMYR3) (human), P30988; assay: cell-based or functional assay
Sequence of recombinant human amylin 3 receptor (hAMYR3) (human), P30988 (P30988 25-474, chain 1 of 2): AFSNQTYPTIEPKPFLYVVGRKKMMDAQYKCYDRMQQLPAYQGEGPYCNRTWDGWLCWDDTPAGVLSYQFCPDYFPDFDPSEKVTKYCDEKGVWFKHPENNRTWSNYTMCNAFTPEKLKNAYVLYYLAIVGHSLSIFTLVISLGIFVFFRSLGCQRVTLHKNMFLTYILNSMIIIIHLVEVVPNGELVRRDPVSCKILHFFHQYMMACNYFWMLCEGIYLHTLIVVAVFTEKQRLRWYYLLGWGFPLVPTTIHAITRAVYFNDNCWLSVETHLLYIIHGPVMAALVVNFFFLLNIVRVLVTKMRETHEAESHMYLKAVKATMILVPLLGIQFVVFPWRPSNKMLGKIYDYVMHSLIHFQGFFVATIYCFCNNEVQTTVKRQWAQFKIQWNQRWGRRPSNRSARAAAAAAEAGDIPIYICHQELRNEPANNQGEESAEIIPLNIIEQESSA
Sequence of recombinant human amylin 3 receptor (hAMYR3) (human), P30988 (O60896 24-148, chain 2 of 2, further chain): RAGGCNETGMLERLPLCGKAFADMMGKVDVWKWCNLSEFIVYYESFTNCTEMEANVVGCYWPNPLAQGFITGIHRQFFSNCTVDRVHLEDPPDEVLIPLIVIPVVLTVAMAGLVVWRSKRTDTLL

[2] = biological target: recombinant human calcitonin receptor (hCT-R) (human), P30988; assay: cell-based or functional assay
Sequence of recombinant human calcitonin receptor (hCT-R) (human), P30988 (P30988 25-474): as the sequence (P30988 25-474, chain 1 of 2) above

Binder	hAMYR3 EC50 [nM] (cAMP formation, 1321N1 cells expressing hAMYR3) [1]	hCT-R EC50 [nM] (cAMP formation, 1321N1 cells expressing hCT-R) [2]
{C20 diacid-γGlu}-RDGTAT[Orn]ATERLAHFLQRSSF[Sar]A[NMeI]PSSTEVGSNT[Hyp]-NH2 (lactam 2-7; SMILES CC[C@H](C)[C@@H](C(=O)N1CCC[C@H]1C(=O)N[C@@H](CO)C(=O)N[C@@H](CO)C(=O)N[C@H](C(=O)N[C@@H](CCC(=O)O)C(=O)N[C@H](C(=O)NCC(=O)N[C@@H](CO)C(=O)N[C@@H](CC(N)=O)C(=O)N[C@H](C(=O)N1C[C@H](O)C[C@H]1C(N)=O)[C@@H](C)O)C(C)C)[C@@H](C)O)N(C)C(=O)[C@H](C)NC(=O)CN(C)C(=O)[C@H](Cc1ccccc1)NC(=O)[C@H](CO)NC(=O)[C@H](CO)NC(=O)[C@H](CCCNC(=N)N)NC(=O)[C@H](CCC(N)=O)NC(=O)[C@H](CC(C)C)NC(=O)[C@H](Cc1ccccc1)NC(=O)[C@H](Cc1c[nH]cn1)NC(=O)[C@H](C)NC(=O)[C@H](CC(C)C)NC(=O)[C@H](CCCNC(=N)N)NC(=O)[C@H](CCC(=O)O)NC(=O)[C@@H](NC(=O)[C@H](C)NC(=O)[C@@H]1CCCNC(=O)C[C@H](NC(=O)[C@H](CCCNC(=N)N)NC(=O)CC[C@H](NC(=O)CCCCCCCCCCCCCCCCCCC(=O)O)C(=O)O)C(=O)NCC(=O)N[C@@H]([C@@H](C)O)C(=O)N[C@@H](C)C(=O)N[C@@H]([C@@H](C)O)C(=O)N1)[C@@H](C)O) [Compound 5]	0.032 nM	0.114 nM
{C20 diacid-γGlu}-RDGTAT[Dap]ATERLAHFLQRSSF[Sar]A[NMeI]LSSTEVGSNT[Hyp]-NH2 (lactam 2-7; SMILES CC[C@H](C)[C@@H](C(=O)N[C@@H](CC(C)C)C(=O)N[C@@H](CO)C(=O)N[C@@H](CO)C(=O)N[C@H](C(=O)N[C@@H](CCC(=O)O)C(=O)N[C@H](C(=O)NCC(=O)N[C@@H](CO)C(=O)N[C@@H](CC(N)=O)C(=O)N[C@H](C(=O)N1C[C@H](O)C[C@H]1C(N)=O)[C@@H](C)O)C(C)C)[C@@H](C)O)N(C)C(=O)[C@H](C)NC(=O)CN(C)C(=O)[C@H](Cc1ccccc1)NC(=O)[C@H](CO)NC(=O)[C@H](CO)NC(=O)[C@H](CCCNC(=N)N)NC(=O)[C@H](CCC(N)=O)NC(=O)[C@H](CC(C)C)NC(=O)[C@H](Cc1ccccc1)NC(=O)[C@H](Cc1c[nH]cn1)NC(=O)[C@H](C)NC(=O)[C@H](CC(C)C)NC(=O)[C@H](CCCNC(=N)N)NC(=O)[C@H](CCC(=O)O)NC(=O)[C@@H](NC(=O)[C@H](C)NC(=O)[C@@H]1CNC(=O)C[C@H](NC(=O)[C@H](CCCNC(=N)N)NC(=O)CC[C@H](NC(=O)CCCCCCCCCCCCCCCCCCC(=O)O)C(=O)O)C(=O)NCC(=O)N[C@@H]([C@@H](C)O)C(=O)N[C@@H](C)C(=O)N[C@@H]([C@@H](C)O)C(=O)N1)[C@@H](C)O) [Compound 1]	9.3 nM	13.6 nM

Other lines, results leading:

hAMYR3 EC50 [nM] (cAMP formation, 1321N1 cells expressing hAMYR3) [1]	hCT-R EC50 [nM] (cAMP formation, 1321N1 cells expressing hCT-R) [2]	Binder
0.306 nM	0.861 nM	{C20 diacid-γGlu}-REGTAT[Dab]ATERLAHFLQRSSF[Sar]A[NMeI]LSSTEVGSNT[Hyp]-NH2 (lactam 2-7; SMILES CC[C@H](C)[C@@H](C(=O)N[C@@H](CC(C)C)C(=O)N[C@@H](CO)C(=O)N[C@@H](CO)C(=O)N[C@H](C(=O)N[C@@H](CCC(=O)O)C(=O)N[C@H](C(=O)NCC(=O)N[C@@H](CO)C(=O)N[C@@H](CC(N)=O)C(=O)N[C@H](C(=O)N1C[C@H](O)C[C@H]1C(N)=O)[C@@H](C)O)C(C)C)[C@@H](C)O)N(C)C(=O)[C@H](C)NC(=O)CN(C)C(=O)[C@H](Cc1ccccc1)NC(=O)[C@H](CO)NC(=O)[C@H](CO)NC(=O)[C@H](CCCNC(=N)N)NC(=O)[C@H](CCC(N)=O)NC(=O)[C@H](CC(C)C)NC(=O)[C@H](Cc1ccccc1)NC(=O)[C@H](Cc1c[nH]cn1)NC(=O)[C@H](C)NC(=O)[C@H](CC(C)C)NC(=O)[C@H](CCCNC(=N)N)NC(=O)[C@H](CCC(=O)O)NC(=O)[C@@H](NC(=O)[C@H](C)NC(=O)[C@@H]1CCNC(=O)CC[C@H](NC(=O)[C@H](CCCNC(=N)N)NC(=O)CC[C@H](NC(=O)CCCCCCCCCCCCCCCCCCC(=O)O)C(=O)O)C(=O)NCC(=O)N[C@@H]([C@@H](C)O)C(=O)N[C@@H](C)C(=O)N[C@@H]([C@@H](C)O)C(=O)N1)[C@@H](C)O) [Compound 51]
1.5 nM	3.3 nM	{C20 diacid-γGlu}-R[Aad]GTAT[Dap]ATERLAHFLQRSSF[Sar]A[NMeI]LSSTEVGSNT[Hyp]-NH2 (lactam 2-7; SMILES CC[C@H](C)[C@@H](C(=O)N[C@@H](CC(C)C)C(=O)N[C@@H](CO)C(=O)N[C@@H](CO)C(=O)N[C@H](C(=O)N[C@@H](CCC(=O)O)C(=O)N[C@H](C(=O)NCC(=O)N[C@@H](CO)C(=O)N[C@@H](CC(N)=O)C(=O)N[C@H](C(=O)N1C[C@H](O)C[C@H]1C(N)=O)[C@@H](C)O)C(C)C)[C@@H](C)O)N(C)C(=O)[C@H](C)NC(=O)CN(C)C(=O)[C@H](Cc1ccccc1)NC(=O)[C@H](CO)NC(=O)[C@H](CO)NC(=O)[C@H](CCCNC(=N)N)NC(=O)[C@H](CCC(N)=O)NC(=O)[C@H](CC(C)C)NC(=O)[C@H](Cc1ccccc1)NC(=O)[C@H](Cc1c[nH]cn1)NC(=O)[C@H](C)NC(=O)[C@H](CC(C)C)NC(=O)[C@H](CCCNC(=N)N)NC(=O)[C@H](CCC(=O)O)NC(=O)[C@@H](NC(=O)[C@H](C)NC(=O)[C@@H]1CNC(=O)CCC[C@H](NC(=O)[C@H](CCCNC(=N)N)NC(=O)CC[C@H](NC(=O)CCCCCCCCCCCCCCCCCCC(=O)O)C(=O)O)C(=O)NCC(=O)N[C@@H]([C@@H](C)O)C(=O)N[C@@H](C)C(=O)N[C@@H]([C@@H](C)O)C(=O)N1)[C@@H](C)O) [Compound 50]
17.1 nM	20.3 nM	{C20 diacid-γGlu}-RDGTAT[Orn]ATERLAHFLQRSSF[Sar]A[NMeI]PSSTEVGSNT[Hyp]-NH2 (SMILES CC[C@H](C)[C@@H](C(=O)N1CCC[C@H]1C(=O)N[C@@H](CO)C(=O)N[C@@H](CO)C(=O)N[C@H](C(=O)N[C@@H](CCC(=O)O)C(=O)N[C@H](C(=O)NCC(=O)N[C@@H](CO)C(=O)N[C@@H](CC(N)=O)C(=O)N[C@H](C(=O)N1C[C@H](O)C[C@H]1C(N)=O)[C@@H](C)O)C(C)C)[C@@H](C)O)N(C)C(=O)[C@H](C)NC(=O)CN(C)C(=O)[C@H](Cc1ccccc1)NC(=O)[C@H](CO)NC(=O)[C@H](CO)NC(=O)[C@H](CCCNC(=N)N)NC(=O)[C@H](CCC(N)=O)NC(=O)[C@H](CC(C)C)NC(=O)[C@H](Cc1ccccc1)NC(=O)[C@H](Cc1c[nH]cn1)NC(=O)[C@H](C)NC(=O)[C@H](CC(C)C)NC(=O)[C@H](CCCNC(=N)N)NC(=O)[C@H](CCC(=O)O)NC(=O)[C@@H](NC(=O)[C@H](C)NC(=O)[C@H](CCCN)NC(=O)[C@@H](NC(=O)[C@H](C)NC(=O)[C@@H](NC(=O)CNC(=O)[C@H](CC(=O)O)NC(=O)[C@H](CCCNC(=N)N)NC(=O)CC[C@H](NC(=O)CCCCCCCCCCCCCCCCCCC(=O)O)C(=O)O)[C@@H](C)O)[C@@H](C)O)[C@@H](C)O) [Ref. 1]
